Substitutions are numbered along the chain they refer to. Names may count otherwise.
B1: jrPPO1-wt (Juglans regia; V207I) (protein)
chain: DPVSAPELTLCSEADLPAGALPVNCCPPTSKKIKDFVLPSQNTPLRVRPAAHLVDNDYIAKYNKGIELMKSLPADDPRSFTQQANVHCAYCDGAYTQVGFPDLSLQIHECWLFFPFHRYYVYFFEKILGKLIGDPTFALPFWNWDSPPGMQLPSLYAVSNSAIYDPLRNANHQPPTIIDLDYGETSESTTTTDQVPSNLKIMYRQMVSGAKNPTLFFGSPYRAGDEPDPGAGTIESTPHNNIHLWTGDDTQPNIENMGNFYSAGRDPIFFAHHSNVDRMWTIWKTLGGKRKDITDPDWLNSSFFFYDENADPVRVKVKDCVDNTKLRYVYQDVEIPWLKTKPTPRKSRVKKVAKAFPAGHGGVAQAAETSSVKFPIVLDKVISTVVARPKKSRSKKEKDDEEEVLVIEGIEVERDIPVKFDVFINDEDDAPTGPGINTEFAGSFVSVPQQKQTKKKKTYLRIGISDLLEDLGAEDDDSVVVTLVPRFGKGKAIIGGIKIVLIG
notes: latent pro-enzyme (active domain + C-terminal domain) without transit peptide; E. coli BL21(DE3), pGEX-6P-1, N-terminal GST tag cut with HRV-3C protease; cloned from walnut leaf cDNA, Val107Ile versus FJ769240.1
B2: jrPPO1-wt (Juglans regia; L344R/N340T/V307I) (protein)
chain: B1 chain with I107V, V207I, N240T, L244R
notes: as for B1
B3: jrPPO1-wt (Juglans regia; L344R/V307I) (protein)
chain: B1 chain with I107V, V207I, L244R
notes: as for B1
B4: jrPPO1-wt (Juglans regia; N340K/V307I) (protein)
chain: B1 chain with I107V, V207I, N240K
notes: as for B1
B5: jrPPO1-wt (Juglans regia; L344R/N340K/V307I) (protein)
chain: B1 chain with I107V, V207I, N240K, L244R
notes: as for B1
B6: jrPPO1-wt (Juglans regia; F360G/V307I) (protein)
chain: B1 chain with I107V, V207I, F260G
notes: as for B1

substrate: NCCc1ccc(O)c(O)c1; assay: spectrophotometric quinone formation; format: biochemical, Juglans regia; settings: 50 mM sodium phosphate pH 6.0, 2 mM SDS as activator, 25 °C, diphenolase
Text: (§1) spectrophotometric quinone formation on jrPPO1-wt

Question: For B1, which Km is on record?
Answer: Its Km is 0.75 ± 0.13 mM.

Question: And the kcat?
Answer: Its kcat is 92.5 ± 7.8 s⁻¹.

Question: What about the kcat/Km of the same protein?
Answer: The kcat/Km was 123000 ± 24000 M⁻¹ s⁻¹.

Question: With B2 as the protein, how does the Km read?
Answer: Its Km is 6.6 ± 1.5 mM.

Question: And the kcat?
Answer: The kcat was 0.789 ± 0.079 s⁻¹.

Question: What about the kcat/Km of the same protein?
Answer: Its kcat/Km is 122 ± 26 M⁻¹ s⁻¹.

Question: For B3, which Km is on record?
Answer: Its Km is 2.36 ± 0.41 mM.

Question: And the kcat?
Answer: The kcat was 24.9 ± 1.6 s⁻¹.

Question: What about the kcat/Km of the same protein?
Answer: The kcat/Km was 10600 ± 2000 M⁻¹ s⁻¹.

Question: For B4, which Km is on record?
Answer: Its Km is 19.8 ± 4.7 mM.

Question: And the kcat?
Answer: The kcat was 2.51 ± 0.4 s⁻¹.

Question: And the kcat/Km?
Answer: Its kcat/Km is 132 ± 97 M⁻¹ s⁻¹.

Question: With B5 as the protein, how does the Km read?
Answer: The Km was 6.8 ± 1.3 mM.

Question: What about the kcat of the same protein?
Answer: Its kcat is 0.029 ± 0.002 s⁻¹.

Question: And the kcat/Km?
Answer: The kcat/Km was 4.28 ± 0.85 M⁻¹ s⁻¹.

Question: For B6, which Km is on record?
Answer: Its Km is 1.2 ± 0.4 mM.

Question: And the kcat?
Answer: The kcat was 7.36 ± 0.98 s⁻¹.

Question: And the kcat/Km?
Answer: Its kcat/Km is 5900 ± 2200 M⁻¹ s⁻¹.

substrate: NCCc1ccc(O)cc1; assay: spectrophotometric quinone formation; format: biochemical, Juglans regia; settings: 50 mM sodium phosphate pH 6.0, 2 mM SDS as activator, 25 °C, monophenolase
Text: as §1

Question: Which results are given for B1?
Answer: Km: 0.451 ± 0.084 mM; kcat: 24.7 ± 1.5 s⁻¹; kcat/Km: 55000 ± 11000 M⁻¹ s⁻¹

Question: How did the Km turn out when B3 was run?
Answer: The Km was 2.68 ± 0.53 mM.

Question: And the kcat?
Answer: The kcat was 1.62 ± 0.09 s⁻¹.

Question: What about the kcat/Km of the same protein?
Answer: Its kcat/Km is 600 ± 120 M⁻¹ s⁻¹.

Question: Which Km does the source give for B4 here?
Answer: The Km was 8.2 ± 1.4 mM.

Question: And the kcat?
Answer: The kcat was 0.0542 ± 0.0034 s⁻¹.

Question: And the kcat/Km?
Answer: Its kcat/Km is 6.6 ± 1.2 M⁻¹ s⁻¹.

Question: How did the Km turn out when B6 was run?
Answer: The Km was 3.05 ± 0.72 mM.

Question: What about the kcat of the same protein?
Answer: The kcat was 0.323 ± 0.025 s⁻¹.

Question: What about the kcat/Km of the same protein?
Answer: Its kcat/Km is 103 ± 26 M⁻¹ s⁻¹.

substrate: N[C@@H](Cc1ccc(O)c(O)c1)C(=O)O; assay: spectrophotometric quinone formation; format: biochemical, Juglans regia; settings: 50 mM sodium phosphate pH 6.0, 2 mM SDS as activator, 25 °C, diphenolase
Text: as §1

Question: With B1 as the protein, how does the Km read?
Answer: Its Km is 6.2 ± 1.0 mM.

Question: And the kcat?
Answer: The kcat was 111 ± 8.8 s⁻¹.

Question: What about the kcat/Km of the same protein?
Answer: The kcat/Km was 18100 ± 3400 M⁻¹ s⁻¹.

Question: With B2 as the protein, how does the Km read?
Answer: The Km was 13.1 ± 3.3 mM.

Question: And the kcat?
Answer: The kcat was 0.18 ± 0.027 s⁻¹.

Question: And the kcat/Km?
Answer: The kcat/Km was 12.9 ± 4 M⁻¹ s⁻¹.

Question: Which Km does the source give for B5 here?
Answer: The Km was 16.5 ± 4.8 mM.

Question: What about the kcat of the same protein?
Answer: Its kcat is 0.104 ± 0.019 s⁻¹.

Question: What about the kcat/Km of the same protein?
Answer: Its kcat/Km is 6 ± 2.1 M⁻¹ s⁻¹.

substrate: N[C@@H](Cc1ccc(O)cc1)C(=O)O; assay: spectrophotometric quinone formation; format: biochemical, Juglans regia; settings: 50 mM sodium phosphate pH 6.0, 2 mM SDS as activator, 25 °C, monophenolase
Text: as §1

Question: Which results are given for B1?
Answer: Km: 1.42 ± 0.37 mM; kcat: 6 ± 1.1 s⁻¹; kcat/Km: 4300 ± 1400 M⁻¹ s⁻¹

Source: publication PMC6997208, “Conversion of walnut tyrosinase into a catechol oxidase by site directed mutagenesis” (Scientific Reports, 2020)
